Measurements from article PMC6555819, “Comprehensive study of nuclear receptor DNA binding provides a revised framework for understanding receptor specificity”.
Residue numbers refer to the chain shown, from its start.

B1: NRC3_wobSeed51_DR2_T5C_o1 (dsDNA)
DNA 1: GCCCCCGGAGGACAGAAGGTCAGAGCTGTCCGCTTTGCGATTGACAGCGTAGAATGAAGG
DNA 2: CCTTCATTCTACGCTGTCAATCGCAAAGCGGACAGCTCTGACCTTCTGTCCTCCGGGGGC
B2: NRC3_wobSeed73_DR3_A25C_o1 (dsDNA)
DNA 1: GCCAAACTAGGTCACAGAGGTCAACGTCCGTGCGTAGCGATTGACAGCGTAGAATGAAGG
DNA 2: CCTTCATTCTACGCTGTCAATCGCTACGCACGGACGTTGACCTCTGTGACCTAGTTTGGC
B3: NRC3_wobSeed69_DR2_T16G_o1 (dsDNA)
DNA 1: GCAGTCAAAGTTCACGAGGTAACGTAAGATTCAGCTGCGATTGACAGCGTAGAATGAAGG
DNA 2: CCTTCATTCTACGCTGTCAATCGCAGCTGAATCTTACGTTACCTCGTGAACTTTGACTGC
B4: NRC3_wobSeed61_DR2_C7T_o1 (dsDNA)
DNA 1: GCCGTCTAAGGTCAGCAGGTCAGTGAAAGCGACGTGGCGATTGACAGCGTAGAATGAAGG
DNA 2: CCTTCATTCTACGCTGTCAATCGCCACGTCGCTTTCACTGACCTGCTGACCTTAGACGGC
B5: NRC3_wobSeed61_DR2_G15A_o1 (dsDNA)
DNA 1: B4 DNA 1 with T7C, G15A
DNA 2: B4 DNA 2 with C46T, A54G
B6: NRC3_wobSeed61_DR2_G23C_o1 (dsDNA)
DNA 1: B4 DNA 1 with T7C, G23C
DNA 2: B4 DNA 2 with C38G, A54G
B7: NRC3_wobSeed134_DR5_T8A_o1 (dsDNA)
DNA 1: GCGCTGCAAGGTCAACTGATGGTCAGCTAAAGCTCGGCGATTGACAGCGTAGAATGAAGG
DNA 2: CCTTCATTCTACGCTGTCAATCGCCGAGCTTTAGCTGACCATCAGTTGACCTTGCAGCGC
B8: NRC3_wobSeed12_DR0_T8G_o1 (dsDNA)
DNA 1: GCCCGACGGGGGCAAGGTTACCATAACGCACAGCCAGCGATTGACAGCGTAGAATGAAGG
DNA 2: CCTTCATTCTACGCTGTCAATCGCTGGCTGTGCGTTATGGTAACCTTGCCCCCGTCGGGC
B9: NRC3_wobSeed21_DR0_G17T_o1 (dsDNA)
DNA 1: GCCGTCAAAGTTCAAGTTAACGTAACAGAAAGCAGCGCGATTGACAGCGTAGAATGAAGG
DNA 2: CCTTCATTCTACGCTGTCAATCGCGCTGCTTTCTGTTACGTTAACTTGAACTTTGACGGC
B10: NRC3_wobSeed21_DR0_A19T_o1 (dsDNA)
DNA 1: B9 DNA 1 with T17G, A19T
DNA 2: B9 DNA 2 with T42A, A44C
B11: NRC3_wobSeed85_DR3_C6G_o1 (dsDNA)
DNA 1: GCCGTGCAAGGTCAGAGAGGTCAGTGAATGCCGAGTGCGATTGACAGCGTAGAATGAAGG
DNA 2: CCTTCATTCTACGCTGTCAATCGCACTCGGCATTCACTGACCTCTCTGACCTTGCACGGC
B12: NRC3_wobSeed141_DR5_G15C_o1 (dsDNA)
DNA 1: GCAGTCAAAGTTCACGACGAGGTAACGTAAAGCACGGCGATTGACAGCGTAGAATGAAGG
DNA 2: CCTTCATTCTACGCTGTCAATCGCCGTGCTTTACGTTACCTCGTCGTGAACTTTGACTGC
B13: NRC3_wobSeed117_DR4_A29T_o1 (dsDNA)
DNA 1: GCCGTCAAAGTTCAACTAAGGTAACGTATAGCACGCGCGATTGACAGCGTAGAATGAAGG
DNA 2: CCTTCATTCTACGCTGTCAATCGCGCGTGCTATACGTTACCTTAGTTGAACTTTGACGGC
B14: NRC3_wobSeed117_DR4_G21T_o1 (dsDNA)
DNA 1: B13 DNA 1 with G21T, T29A
DNA 2: B13 DNA 2 with A32T, C40A

biological target: RARb:RXRa (Homo sapiens, UniProt P10826;P19793 full;full); experiment: no ligand; PBM; 270 nM : 90 nM RXRa; PBS pH 7.4, 2% milk, 0.02% Triton X-100, 1 mM DTT, BSA, 0.4 mg/ml salmon testes DNA; conditions: tags: His kept;His cleaved; copies: 1;1; label: surface-attached array probe
Procedure, shortened: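 Binding z-scores were set against random background probes. The data came from custom Agilent 4×180K protein-binding microarrays carrying double-stranded probes with 34-nt variable regions, incubated 1 h with ligand-free nuclear receptor dimers. Partner-specific antibodies detected binding, and scanned fluorescence was regression-normalized.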

Sequence of RARb:RXRa (P10826 whole entry, chain 1 of 2): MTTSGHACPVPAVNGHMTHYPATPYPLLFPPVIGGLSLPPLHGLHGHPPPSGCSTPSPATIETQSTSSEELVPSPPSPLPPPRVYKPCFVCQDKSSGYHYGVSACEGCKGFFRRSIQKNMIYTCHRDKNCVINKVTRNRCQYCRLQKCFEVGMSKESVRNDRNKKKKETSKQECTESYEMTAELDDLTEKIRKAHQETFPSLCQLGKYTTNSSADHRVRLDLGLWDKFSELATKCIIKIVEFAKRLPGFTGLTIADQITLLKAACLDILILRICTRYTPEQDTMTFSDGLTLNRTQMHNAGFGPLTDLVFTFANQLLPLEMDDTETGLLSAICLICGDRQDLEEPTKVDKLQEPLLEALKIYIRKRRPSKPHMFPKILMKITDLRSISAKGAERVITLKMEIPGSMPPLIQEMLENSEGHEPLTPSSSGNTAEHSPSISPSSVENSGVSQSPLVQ
Sequence of RARb:RXRa (P19793 whole entry, chain 2 of 2): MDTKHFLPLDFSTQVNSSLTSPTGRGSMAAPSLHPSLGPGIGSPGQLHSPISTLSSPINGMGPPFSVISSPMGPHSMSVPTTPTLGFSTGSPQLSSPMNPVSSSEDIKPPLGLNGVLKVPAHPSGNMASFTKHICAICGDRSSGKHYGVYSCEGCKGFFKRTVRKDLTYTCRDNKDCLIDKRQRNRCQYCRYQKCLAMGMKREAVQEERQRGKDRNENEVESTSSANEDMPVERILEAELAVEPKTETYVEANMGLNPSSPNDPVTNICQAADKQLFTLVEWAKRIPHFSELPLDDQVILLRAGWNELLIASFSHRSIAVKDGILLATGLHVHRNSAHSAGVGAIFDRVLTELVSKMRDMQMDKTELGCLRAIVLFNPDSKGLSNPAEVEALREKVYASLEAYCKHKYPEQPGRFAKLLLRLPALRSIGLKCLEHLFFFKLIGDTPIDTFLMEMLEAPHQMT

Point of comparison: B8, binding signal 3.13 PBM z-score against 500 random probes. Against it:
- B1 — the same, 3.13 PBM z-score against 500 random probes
- B2 — higher, 5.59 PBM z-score against 500 random probes
- B3 — higher, 5.54 PBM z-score against 500 random probes
- B4 — higher, 5.58 PBM z-score against 500 random probes
- B5 — higher, 5.56 PBM z-score against 500 random probes
- B6 — higher, 5.58 PBM z-score against 500 random probes
- B7 — higher, 5.55 PBM z-score against 500 random probes
- B9 — higher, 5.46 PBM z-score against 500 random probes
- B10 — higher, 5.43 PBM z-score against 500 random probes
- B11 — higher, 5.58 PBM z-score against 500 random probes
- B12 — higher, 5.43 PBM z-score against 500 random probes
- B13 — higher, 5.55 PBM z-score against 500 random probes
- B14 — higher, 5.53 PBM z-score against 500 random probes
